# Test results: US10941182 (Amgen, dated 2021)
# Starred links: 1 amine or outer side, 2 acyl side, 3 side chain; linkers in the order of their positions; H or OH if unused. Non-standard residues stand in square brackets, D forms with d. *: point of attachment. AC4Abu = α-carboxy-4-aminobutyric acid, O=C(C(CCN[*:1])C(=O)[*:3])[*:2]; Oic = O=C(O)[C@@H]1C[C@@H]2CCCC[C@@H]2N1; Phe(4-Cl) = N[C@@H](Cc1ccc(Cl)cc1)C(=O)O; dPhe(4-Cl) = N[C@H](Cc1ccc(Cl)cc1)C(=O)O; γGlu = O=C(O)[C@H](CCC(=O)[*:2])N[*:1]; 2Nal = N[C@@H](Cc1ccc2ccccc2c1)C(=O)O; NMeR = CN[C@@H](CCCNC(=N)N)C(=O)O; Tridecanoyl = CCCCCCCCCCCCC(=O)*; hArg = N=C(N)NCCCC[C@H](N)C(=O)O; 3Pal = N[C@@H](Cc1cccnc1)C(=O)O; Cha = N[C@@H](CC1CCCCC1)C(=O)O; αMeL = CC(C)C[C@](C)(N)C(=O)O; β3hL = CC(C)C[C@H](N)CC(=O)O; Nle = CCCC[C@H](N)C(=O)O; AEEA = NCCOCCOCC(=O)O; βAla = NCCC(=O)O; BLys = β-lysine
# T1: human APJ receptor (human, UniProt P35414 1-380)
# T1 sequence (looked up): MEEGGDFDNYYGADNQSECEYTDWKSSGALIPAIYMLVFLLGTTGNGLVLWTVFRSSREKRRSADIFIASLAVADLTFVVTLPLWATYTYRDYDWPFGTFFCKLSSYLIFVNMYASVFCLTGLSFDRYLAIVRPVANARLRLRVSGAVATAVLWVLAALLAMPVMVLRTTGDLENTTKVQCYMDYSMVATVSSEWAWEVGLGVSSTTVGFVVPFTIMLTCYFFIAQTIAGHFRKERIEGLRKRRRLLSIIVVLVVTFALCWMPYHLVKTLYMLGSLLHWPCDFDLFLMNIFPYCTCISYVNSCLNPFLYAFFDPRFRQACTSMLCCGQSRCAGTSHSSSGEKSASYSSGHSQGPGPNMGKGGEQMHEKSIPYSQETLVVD
# T2: rat APJ receptor (rat, UniProt Q9JHG3 1-377)
# T2 sequence (looked up): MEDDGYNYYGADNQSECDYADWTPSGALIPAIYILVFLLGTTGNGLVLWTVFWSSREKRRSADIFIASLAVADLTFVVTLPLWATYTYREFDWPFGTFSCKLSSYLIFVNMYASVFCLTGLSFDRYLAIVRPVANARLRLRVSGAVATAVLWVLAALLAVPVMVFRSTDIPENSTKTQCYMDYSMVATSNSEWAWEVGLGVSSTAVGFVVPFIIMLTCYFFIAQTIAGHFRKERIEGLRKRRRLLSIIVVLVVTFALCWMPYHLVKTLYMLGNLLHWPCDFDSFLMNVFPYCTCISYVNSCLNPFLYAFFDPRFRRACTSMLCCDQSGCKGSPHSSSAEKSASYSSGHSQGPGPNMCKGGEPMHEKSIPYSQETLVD
# What was measured:
# human APJ receptor = biological target: T1, human APJ receptor; test: cell-based or functional assay
# rat APJ receptor = biological target: T2, rat APJ receptor; test: cell-based or functional assay
EC50 Human APJ Receptor (GTPγS assay) (human APJ receptor),EC50 Rat APJ Receptor (GTPγS assay) (rat APJ receptor),Binder
0.285 nM,0.314 nM,Tridecanoyl-[γGlu][AEEA][AEEA]Q[hArg]P[hArg]LSHKG[Oic][Nle]P[Phe(4-Cl)]-OH (SMILES CCCCCCCCCCCCC(=O)N[C@@H](CCC(=O)NCCOCCOCC(=O)NCCOCCOCC(=O)N[C@@H](CCC(N)=O)C(=O)N[C@@H](CCCCNC(=N)N)C(=O)N1CCC[C@H]1C(=O)N[C@@H](CCCCNC(=N)N)C(=O)N[C@@H](CC(C)C)C(=O)N[C@@H](CO)C(=O)N[C@@H](Cc1c[nH]cn1)C(=O)N[C@@H](CCCCN)C(=O)NCC(=O)N1[C@H](C(=O)N[C@@H](CCCC)C(=O)N2CCC[C@H]2C(=O)N[C@@H](Cc2ccc(Cl)cc2)C(=O)O)C[C@@H]2CCCC[C@@H]21)C(=O)O) [Apelin polypeptide SEQ ID NO: 358]
> 4170 nM,30.7 nM,Tridecanoyl-[γGlu][AEEA][AEEA][dQ][hArg]P[NMeR][Cha]SHK[βAla][Oic][Nle]P[dPhe(4-Cl)]-OH (SMILES CCCCCCCCCCCCC(=O)N[C@@H](CCC(=O)NCCOCCOCC(=O)NCCOCCOCC(=O)N[C@H](CCC(N)=O)C(=O)N[C@@H](CCCCNC(=N)N)C(=O)N1CCC[C@H]1C(=O)N(C)[C@@H](CCCNC(=N)N)C(=O)N[C@@H](CC1CCCCC1)C(=O)N[C@@H](CO)C(=O)N[C@@H](Cc1c[nH]cn1)C(=O)N[C@@H](CCCCN)C(=O)NCCC(=O)N1[C@H](C(=O)N[C@@H](CCCC)C(=O)N2CCC[C@H]2C(=O)N[C@H](Cc2ccc(Cl)cc2)C(=O)O)C[C@@H]2CCCC[C@@H]21)C(=O)O) [Apelin polypeptide SEQ ID NO: 294]
0.0347 nM,0.0628 nM,XXXQRPRLSHKGPXPF ({TDA}[AC4Abu][Aeea][Aeea]Q[hArg]P[NMeArg][aMeLeu]SHKGP[Nle]P[4-Cl-F]{COOH}) [Apelin polypeptide SEQ ID NO: 460]
139 nM,260 nM,Tridecanoyl-[γGlu][AEEA][AEEA][dQ][hArg]P[NMeR][Cha]S[βAla]KG[Oic][Nle]P[dPhe(4-Cl)]-OH (SMILES CCCCCCCCCCCCC(=O)N[C@@H](CCC(=O)NCCOCCOCC(=O)NCCOCCOCC(=O)N[C@H](CCC(N)=O)C(=O)N[C@@H](CCCCNC(=N)N)C(=O)N1CCC[C@H]1C(=O)N(C)[C@@H](CCCNC(=N)N)C(=O)N[C@@H](CC1CCCCC1)C(=O)N[C@@H](CO)C(=O)NCCC(=O)N[C@@H](CCCCN)C(=O)NCC(=O)N1[C@H](C(=O)N[C@@H](CCCC)C(=O)N2CCC[C@H]2C(=O)N[C@H](Cc2ccc(Cl)cc2)C(=O)O)C[C@@H]2CCCC[C@@H]21)C(=O)O) [Apelin polypeptide SEQ ID NO: 304]
0.601 nM,3.59 nM,Tridecanoyl-[γGlu][AEEA][AEEA]Q[hArg]P[hArg][Cha]SHKG[Oic][Nle]P[Phe(4-Cl)]-OH (SMILES CCCCCCCCCCCCC(=O)N[C@@H](CCC(=O)NCCOCCOCC(=O)NCCOCCOCC(=O)N[C@@H](CCC(N)=O)C(=O)N[C@@H](CCCCNC(=N)N)C(=O)N1CCC[C@H]1C(=O)N[C@@H](CCCCNC(=N)N)C(=O)N[C@@H](CC1CCCCC1)C(=O)N[C@@H](CO)C(=O)N[C@@H](Cc1c[nH]cn1)C(=O)N[C@@H](CCCCN)C(=O)NCC(=O)N1[C@H](C(=O)N[C@@H](CCCC)C(=O)N2CCC[C@H]2C(=O)N[C@@H](Cc2ccc(Cl)cc2)C(=O)O)C[C@@H]2CCCC[C@@H]21)C(=O)O) [Apelin polypeptide SEQ ID NO: 489]
109 nM,110 nM,Tridecanoyl-[γGlu][AEEA][AEEA][dQ][hArg]P[NMeR][Cha]SH[βAla]G[Oic][Nle]P[dPhe(4-Cl)]-OH (SMILES CCCCCCCCCCCCC(=O)N[C@@H](CCC(=O)NCCOCCOCC(=O)NCCOCCOCC(=O)N[C@H](CCC(N)=O)C(=O)N[C@@H](CCCCNC(=N)N)C(=O)N1CCC[C@H]1C(=O)N(C)[C@@H](CCCNC(=N)N)C(=O)N[C@@H](CC1CCCCC1)C(=O)N[C@@H](CO)C(=O)N[C@@H](Cc1c[nH]cn1)C(=O)NCCC(=O)NCC(=O)N1[C@H](C(=O)N[C@@H](CCCC)C(=O)N2CCC[C@H]2C(=O)N[C@H](Cc2ccc(Cl)cc2)C(=O)O)C[C@@H]2CCCC[C@@H]21)C(=O)O) [Apelin polypeptide SEQ ID NO: 293]
79.2 nM,74.1 nM,Tridecanoyl-[AC4Abu][AEEA][AEEA][dQ][hArg]P[NMeR][Cha][βAla]HKG[Oic][Nle]P[dPhe(4-Cl)]-OH (SMILES CCCCCCCCCCCCC(=O)NCCC(C(=O)O)C(=O)NCCOCCOCC(=O)NCCOCCOCC(=O)N[C@H](CCC(N)=O)C(=O)N[C@@H](CCCCNC(=N)N)C(=O)N1CCC[C@H]1C(=O)N(C)[C@@H](CCCNC(=N)N)C(=O)N[C@@H](CC1CCCCC1)C(=O)NCCC(=O)N[C@@H](Cc1c[nH]cn1)C(=O)N[C@@H](CCCCN)C(=O)NCC(=O)N1[C@H](C(=O)N[C@@H](CCCC)C(=O)N2CCC[C@H]2C(=O)N[C@H](Cc2ccc(Cl)cc2)C(=O)O)C[C@@H]2CCCC[C@@H]21) [Apelin polypeptide SEQ ID NO: 303]
0.0529 nM,0.116 nM,Tridecanoyl-[γGlu][AEEA][AEEA]Q[hArg]P[NMeR][αMeL]SHKG[Oic][Nle]P[Phe(4-Cl)]-OH (SMILES CCCCCCCCCCCCC(=O)N[C@@H](CCC(=O)NCCOCCOCC(=O)NCCOCCOCC(=O)N[C@@H](CCC(N)=O)C(=O)N[C@@H](CCCCNC(=N)N)C(=O)N1CCC[C@H]1C(=O)N(C)[C@@H](CCCNC(=N)N)C(=O)N[C@@](C)(CC(C)C)C(=O)N[C@@H](CO)C(=O)N[C@@H](Cc1c[nH]cn1)C(=O)N[C@@H](CCCCN)C(=O)NCC(=O)N1[C@H](C(=O)N[C@@H](CCCC)C(=O)N2CCC[C@H]2C(=O)N[C@@H](Cc2ccc(Cl)cc2)C(=O)O)C[C@@H]2CCCC[C@@H]21)C(=O)O) [Apelin polypeptide SEQ ID NO: 359]
74.1 nM,136 nM,Tridecanoyl-[γGlu][AEEA][AEEA][dQ][hArg]P[NMeR][Cha]SH[BLys]G[Oic][Nle]P[dPhe(4-Cl)]-OH [Apelin polypeptide SEQ ID NO: 306]
16.5 nM,14.3 nM,Tridecanoyl-[γGlu][AEEA][AEEA][dQ][hArg]P[NMeR][β3hL]SHKG[Oic][Nle]P[dPhe(4-Cl)]-OH (SMILES CCCCCCCCCCCCC(=O)N[C@@H](CCC(=O)NCCOCCOCC(=O)NCCOCCOCC(=O)N[C@H](CCC(N)=O)C(=O)N[C@@H](CCCCNC(=N)N)C(=O)N1CCC[C@H]1C(=O)N(C)[C@@H](CCCNC(=N)N)C(=O)N[C@H](CC(=O)N[C@@H](CO)C(=O)N[C@@H](Cc1c[nH]cn1)C(=O)N[C@@H](CCCCN)C(=O)NCC(=O)N1[C@H](C(=O)N[C@@H](CCCC)C(=O)N2CCC[C@H]2C(=O)N[C@H](Cc2ccc(Cl)cc2)C(=O)O)C[C@@H]2CCCC[C@@H]21)CC(C)C)C(=O)O) [Apelin polypeptide SEQ ID NO: 302]
0.099 nM,0.465 nM,Tridecanoyl-[γGlu][AEEA][AEEA]Q[hArg]P[NMeR][αMeL]SHKGP[Nle]P[2Nal]-OH (SMILES CCCCCCCCCCCCC(=O)N[C@@H](CCC(=O)NCCOCCOCC(=O)NCCOCCOCC(=O)N[C@@H](CCC(N)=O)C(=O)N[C@@H](CCCCNC(=N)N)C(=O)N1CCC[C@H]1C(=O)N(C)[C@@H](CCCNC(=N)N)C(=O)N[C@@](C)(CC(C)C)C(=O)N[C@@H](CO)C(=O)N[C@@H](Cc1c[nH]cn1)C(=O)N[C@@H](CCCCN)C(=O)NCC(=O)N1CCC[C@H]1C(=O)N[C@@H](CCCC)C(=O)N1CCC[C@H]1C(=O)N[C@@H](Cc1ccc2ccccc2c1)C(=O)O)C(=O)O) [Apelin polypeptide SEQ ID NO: 473]
78 nM,66.7 nM,Tridecanoyl-[γGlu][AEEA][AEEA][dQ][hArg]P[NMeR][Cha]SH[3Pal]G[Oic][Nle]P[dPhe(4-Cl)]-OH (SMILES CCCCCCCCCCCCC(=O)N[C@@H](CCC(=O)NCCOCCOCC(=O)NCCOCCOCC(=O)N[C@H](CCC(N)=O)C(=O)N[C@@H](CCCCNC(=N)N)C(=O)N1CCC[C@H]1C(=O)N(C)[C@@H](CCCNC(=N)N)C(=O)N[C@@H](CC1CCCCC1)C(=O)N[C@@H](CO)C(=O)N[C@@H](Cc1c[nH]cn1)C(=O)N[C@@H](Cc1cccnc1)C(=O)NCC(=O)N1[C@H](C(=O)N[C@@H](CCCC)C(=O)N2CCC[C@H]2C(=O)N[C@H](Cc2ccc(Cl)cc2)C(=O)O)C[C@@H]2CCCC[C@@H]21)C(=O)O) [Apelin polypeptide SEQ ID NO: 305]
